Tests used:
Experiment in all cases: pull-down binding Z-score (relative to library population); higher = stronger binding
[1] = system: TO-N3 (biotin conjugate); conditions: RNA library: Library-2
In short: (§1)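 Streptavidin beads with 100 pmol of biotin-conjugated small molecule were incubated for 60 min at 25 °C with 1 μg of heat-folded Cy5- or Cy3-end-labelled RNA library in phosphate/NaCl/KCl buffer. Bound RNA was eluted in hot SDS after three washes and hybridised to a DNA barcode microarray at 55.5 °C for 20 h. Each binding score is a library-referenced Z-score, computed after beads-only subtraction and a trimmed mean of barcoded replicate probes.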

[2] = system: G-clamp-N3 (biotin conjugate); conditions: RNA library: Library-1 (pre-miRNA loops + repeats)
In short: as §1

[3] = system: TO-N3-2 (biotin conjugate); conditions: RNA library: Library-2
In short: as §1

[4] = system: TO-3-N3-2 (biotin conjugate); conditions: RNA library: Library-2
In short: as §1

[5] = system: TO-3-N3 (biotin conjugate); conditions: RNA library: Library-2
In short: as §1

## AUUCUGGAGUCCAUCUAGAG [hsa-mir-1182]
[1]
  pull-down binding Z-score: -0.598
[2]
  pull-down binding Z-score: -1.08
[3]
  pull-down binding Z-score: -0.297
[4]
  pull-down binding Z-score: -0.378
[5]
  pull-down binding Z-score: -0.538

## AUUCUGGCUAGGUGAUCAUCAGAAU [hsa-mir-5583-1]
[1]
  pull-down binding Z-score: -1.07
[2]
  pull-down binding Z-score: 0.902
[3]
  pull-down binding Z-score: -0.726
[4]
  pull-down binding Z-score: -0.406
[5]
  pull-down binding Z-score: -0.794

## AUUGAGAGUUCCUUCUCCUGCUCCUGAU [hsa-mir-6766]
[1]
  pull-down binding Z-score: -0.462
[2]
  pull-down binding Z-score: -0.32
[3]
  pull-down binding Z-score: -0.0576
[4]
  pull-down binding Z-score: -0.369
[5]
  pull-down binding Z-score: -0.548

## AUUGAGUUACCUUUCUGACUUUCCCACU [hsa-mir-28]
[1]
  pull-down binding Z-score: -0.0391
[2]
  pull-down binding Z-score: -0.594
[3]
  pull-down binding Z-score: -0.279
[4]
  pull-down binding Z-score: 0.0519
[5]
  pull-down binding Z-score: 0.108

## AUUGCACGUGUGUGAGGCGGGUGCAGU [hsa-mir-33b]
[1]
  pull-down binding Z-score: 0.7
[2]
  pull-down binding Z-score: 0.513
[3]
  pull-down binding Z-score: 0.592
[4]
  pull-down binding Z-score: 0.102
[5]
  pull-down binding Z-score: 0.626

## AUUGCAUGUUCUGGUGGUACCCAUGCAAU [hsa-mir-33a]
[1]
  pull-down binding Z-score: 0.127
[2]
  pull-down binding Z-score: -0.215
[3]
  pull-down binding Z-score: 0.382
[4]
  pull-down binding Z-score: 0.0325
[5]
  pull-down binding Z-score: 0.18

## AUUGCUGGACGCUGCCCUGGGCAU [hsa-mir-25]
[1]
  pull-down binding Z-score: 1.12
[2]
  pull-down binding Z-score: -0.192
[3]
  pull-down binding Z-score: 1.4
[4]
  pull-down binding Z-score: 0.488
[5]
  pull-down binding Z-score: 0.362

## AUUGGAUGGAGUCAGGUCUCUAAU [hsa-mir-200b]
[1]
  pull-down binding Z-score: 0.26
[2]
  pull-down binding Z-score: 0.359
[3]
  pull-down binding Z-score: 0.568
[4]
  pull-down binding Z-score: 0.101
[5]
  pull-down binding Z-score: -0.126

## AUUGGCUUGGAUUCUGCAAAGCCU [hsa-mir-7151]
[1]
  pull-down binding Z-score: 0.194
[2]
  pull-down binding Z-score: 0.697
[3]
  pull-down binding Z-score: 1.03
[4]
  pull-down binding Z-score: 0.281
[5]
  pull-down binding Z-score: -0.259

## AUUGUACUGUGGUGGUUACAAU [hsa-mir-34b]
[1]
  pull-down binding Z-score: -0.984
[2]
  pull-down binding Z-score: 0.118
[3]
  pull-down binding Z-score: -1.19
[4]
  pull-down binding Z-score: -0.429
[5]
  pull-down binding Z-score: -0.851

## AUUGUUGCCUCUGCAUGUUACAAU [hsa-mir-8066]
[1]
  pull-down binding Z-score: -0.485
[2]
  pull-down binding Z-score: 0.523
[3]
  pull-down binding Z-score: -0.665
[4]
  pull-down binding Z-score: -0.512
[5]
  pull-down binding Z-score: -0.204

## AUUGUUGUGGGGUAGGGAUAUUAGGCCCCAAUUAGAAGAUAACUAU [hsa-mir-98]
[1]
  pull-down binding Z-score: 1.07
[2]
  pull-down binding Z-score: 1.37
[3]
  pull-down binding Z-score: 0.971
[4]
  pull-down binding Z-score: 1.1
[5]
  pull-down binding Z-score: 1.03

## AUUUAUGUGAACUAAAAUAUAAAU [hsa-mir-513b]
[1]
  pull-down binding Z-score: 1.03
[2]
  pull-down binding Z-score: -0.828
[3]
  pull-down binding Z-score: -0.599
[4]
  pull-down binding Z-score: 0.14
[5]
  pull-down binding Z-score: 1.21

## AUUUCCCAAAGUUGGGAAAA [hsa-mir-320b-2]
[1]
  pull-down binding Z-score: -0.432
[2]
  pull-down binding Z-score: -1.23
[3]
  pull-down binding Z-score: -1.08
[4]
  pull-down binding Z-score: -0.231
[5]
  pull-down binding Z-score: 0.0303

## AUUUCUGUAGCUCUGAGACUAGACCU [hsa-mir-544b]
[1]
  pull-down binding Z-score: -0.0563
[2]
  pull-down binding Z-score: -0.0868
[3]
  pull-down binding Z-score: 0.409
[4]
  pull-down binding Z-score: -0.376
[5]
  pull-down binding Z-score: -0.442

## AUUUCUGUGUUCGUUAGGCAACAG [hsa-mir-221]
[1]
  pull-down binding Z-score: 1.07
[2]
  pull-down binding Z-score: 0.12
[3]
  pull-down binding Z-score: 0.324
[4]
  pull-down binding Z-score: 0.283
[5]
  pull-down binding Z-score: 0.785

## AUUUGCCAUCACCUUUACCUUUAAUGGCAAAA [hsa-mir-548av]
[1]
  pull-down binding Z-score: -0.188
[2]
  pull-down binding Z-score: -0.985
[3]
  pull-down binding Z-score: -0.906
[4]
  pull-down binding Z-score: -0.205
[5]
  pull-down binding Z-score: 0.0312

## AUUUUCACUUAAU [hsa-mir-302f]
[1]
  pull-down binding Z-score: -0.27
[2]
  pull-down binding Z-score: 0.103
[3]
  pull-down binding Z-score: -1.17
[4]
  pull-down binding Z-score: -0.267
[5]
  pull-down binding Z-score: -0.0598

## CAAAACUCCGUACAUUGCUAUUUUGC [hsa-mir-3064]
[1]
  pull-down binding Z-score: -0.39
[2]
  pull-down binding Z-score: -0.316
[3]
  pull-down binding Z-score: -0.105
[4]
  pull-down binding Z-score: 0.0575
[5]
  pull-down binding Z-score: -0.563

## CAAACCGGACCUGAGCGUUUUG [hsa-mir-375]
[1]
  pull-down binding Z-score: 1.08
[2]
  pull-down binding Z-score: -0.122
[3]
  pull-down binding Z-score: 0.74
[4]
  pull-down binding Z-score: 0.514
[5]
  pull-down binding Z-score: 1.14

## CAAAGACCAGAACUUAAUGGUCUCUG [hsa-mir-4490]
[1]
  pull-down binding Z-score: -0.888
[2]
  pull-down binding Z-score: 0.704
[3]
  pull-down binding Z-score: -1.15
[4]
  pull-down binding Z-score: -0.671
[5]
  pull-down binding Z-score: -0.471

## CAAAUCGACUGUCCAAUGGAUUUG [hsa-mir-133a-2]
[1]
  pull-down binding Z-score: -0.674
[2]
  pull-down binding Z-score: 2.07
[3]
  pull-down binding Z-score: -0.536
[4]
  pull-down binding Z-score: -0.146
[5]
  pull-down binding Z-score: -0.529

## CAAAUCGCCUCUUCAAUGGAUUUG [hsa-mir-133a-1]
[1]
  pull-down binding Z-score: 0.0594
[2]
  pull-down binding Z-score: 1.23
[3]
  pull-down binding Z-score: -0.613
[4]
  pull-down binding Z-score: -0.209
[5]
  pull-down binding Z-score: 0.308

## CAACAGUUCUGUAGCGCAAUUGUG [hsa-mir-203a]
[1]
  pull-down binding Z-score: 0.622
[2]
  pull-down binding Z-score: 0.267
[3]
  pull-down binding Z-score: 1.07
[4]
  pull-down binding Z-score: 0.0351
[5]
  pull-down binding Z-score: 0.0356

## CAACUACUCAGGAGGCUG [hsa-mir-566]
[1]
  pull-down binding Z-score: 0.0834
[2]
  pull-down binding Z-score: -0.123
[3]
  pull-down binding Z-score: 0.304
[4]
  pull-down binding Z-score: -0.179
[5]
  pull-down binding Z-score: -0.196

## CAAGAGGUGUGAGCCACACACACGCCUGGCCUCCUG [hsa-mir-5699]
[1]
  pull-down binding Z-score: 0.813
[2]
  pull-down binding Z-score: 1.28
[3]
  pull-down binding Z-score: 0.687
[4]
  pull-down binding Z-score: 0.0475
[5]
  pull-down binding Z-score: 0.771

## CAAGCACACAGGGCCUGGGACUAGCAUG [hsa-mir-4728]
[1]
  pull-down binding Z-score: 0.993
[2]
  pull-down binding Z-score: -0.152
[3]
  pull-down binding Z-score: 1.52
[4]
  pull-down binding Z-score: 0.256
[5]
  pull-down binding Z-score: 0.506

## CAAGGAAGAGUCACAGUCUCUUCCUUG [hsa-mir-659]
[1]
  pull-down binding Z-score: -0.699
[2]
  pull-down binding Z-score: -0.00418
[3]
  pull-down binding Z-score: -0.539
[4]
  pull-down binding Z-score: -0.285
[5]
  pull-down binding Z-score: -0.474

## CAAGGGCUCUACUGUCCUUUCAGGAGAGCCCUUG [hsa-mir-4776-2]
[1]
  pull-down binding Z-score: -0.597
[2]
  pull-down binding Z-score: 1.19
[3]
  pull-down binding Z-score: -1.37
[4]
  pull-down binding Z-score: -1.02
[5]
  pull-down binding Z-score: -0.245

## CAAGGGCUCUCCUGAAAGGACAGUAGAGCCCUUG [hsa-mir-4776-1]
[1]
  pull-down binding Z-score: 1.18
[2]
  pull-down binding Z-score: 0.88
[3]
  pull-down binding Z-score: -0.109
[4]
  pull-down binding Z-score: -0.0552
[5]
  pull-down binding Z-score: 1.31

## CAAGUAAAAGGAAUUUUCAUUUUCCAGCCCCUAAUUG [hsa-mir-6739]
[1]
  pull-down binding Z-score: -0.811
[2]
  pull-down binding Z-score: -1.23
[3]
  pull-down binding Z-score: -0.628
[4]
  pull-down binding Z-score: -0.399
[5]
  pull-down binding Z-score: -0.655

## CAAGUCCGUCUUCCUGAGAGGUUUG [hsa-mir-133b]
[1]
  pull-down binding Z-score: -0.0806
[2]
  pull-down binding Z-score: -0.401
[3]
  pull-down binding Z-score: 0.836
[4]
  pull-down binding Z-score: -0.284
[5]
  pull-down binding Z-score: -0.412

## CAAGUUAUCACUGAGCGACUUC [hsa-mir-4664]
[1]
  pull-down binding Z-score: -0.349
[2]
  pull-down binding Z-score: -1.2
[3]
  pull-down binding Z-score: -0.296
[4]
  pull-down binding Z-score: -0.235
[5]
  pull-down binding Z-score: -0.47

## CAAUAGUAAAAAGACAACCUGUUG [hsa-mir-3133]
[1]
  pull-down binding Z-score: -0.651
[2]
  pull-down binding Z-score: 0.427
[3]
  pull-down binding Z-score: -0.486
[4]
  pull-down binding Z-score: 0.0706
[5]
  pull-down binding Z-score: -0.559

## CAAUCACAUGUAAUUAGGUGUGAUUG [hsa-mir-510]
[1]
  pull-down binding Z-score: -1.09
[2]
  pull-down binding Z-score: 1.4
[3]
  pull-down binding Z-score: -1.29
[4]
  pull-down binding Z-score: -0.773
[5]
  pull-down binding Z-score: -0.789

## CAAUCAUGUAUAACUAAAUUUGAUUG [hsa-mir-514a-2_514a-3]
[1]
  pull-down binding Z-score: -1.55
[2]
  pull-down binding Z-score: 0.276
[3]
  pull-down binding Z-score: -1.74
[4]
  pull-down binding Z-score: -0.513
[5]
  pull-down binding Z-score: -1.04

## CAAUCAUGUAUAAUUAAAUUUGAUUG [hsa-mir-514a-1]
[1]
  pull-down binding Z-score: -0.511
[2]
  pull-down binding Z-score: 0.528
[3]
  pull-down binding Z-score: -1.18
[4]
  pull-down binding Z-score: 0.0139
[5]
  pull-down binding Z-score: -0.112

From the supplement of paper PMC11865577
